Data taken from patent US20080060092A1.

Key:
[1] = molecular target: FcγRIIIa on human effector cells of a FcγRIIIa Phe/Phe^158 homozygote donor (human) (UniProt P08637); assay: cell-based or functional assay
[2] = molecular target: FcγRIIIa on human effector cells of a FcγRIIIa Phe/Val^158 heterozygote donor (human) (UniProt P08637); assay: cell-based or functional assay

ADCC, maximal percent cell lysis of L540 target cells [1] | ADCC, maximal percent cell lysis of L540 target cells [2] | ADCC EC50, times lower than MDX-060 CHO [2] | ADCC EC50, times lower than MDX-060 LEX [2] | Substance
15% | 31% |  |  | MDX-060 CHO (antibody)
27% | 31% |  |  | MDX-060 LEX (antibody)
 |  | 5 fold | 3 fold | MDX-060 LEX^Opt (antibody)
